Measured values from patent US20200123228A1.
Where no end group is shown, it is not given here.

Biological target: bovine collagen (Symatese), polymerized gel (bovine)
Experiment: retention on polymerized bovine collagen gel, antibody loaded at 10 µg/mL, released antibody measured by ELISA

% of bound antibody released by plasmin digestion after buffer changes: 47.1%
B1: PlGF-2123-144-αPD-L1 (clone 10F.9G2) (antibody, part only; not given: anti-PD-L1 antibody, part only)
peptide: RRRPKGRGKRRREKQRPTDCHL
modifications: not fully specified (residue 20); also: antibody conjugate, average 6 peptides per antibody
